Literature values, collected in publication PMC6155412.
pKd: −log10 of the molar value.

Molecular target: FPR2 (Homo sapiens) (UniProt P25090)
Sequence of UniProt P25090 (P25090 whole entry): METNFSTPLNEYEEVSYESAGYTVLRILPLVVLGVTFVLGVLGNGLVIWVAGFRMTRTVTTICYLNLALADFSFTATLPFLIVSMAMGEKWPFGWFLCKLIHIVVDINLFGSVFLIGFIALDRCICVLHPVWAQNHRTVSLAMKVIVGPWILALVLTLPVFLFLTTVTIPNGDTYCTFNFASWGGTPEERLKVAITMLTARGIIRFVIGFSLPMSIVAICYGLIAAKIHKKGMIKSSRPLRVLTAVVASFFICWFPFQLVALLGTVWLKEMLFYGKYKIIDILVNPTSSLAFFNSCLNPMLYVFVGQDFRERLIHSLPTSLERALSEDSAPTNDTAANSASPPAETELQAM

## uteroglobin (UG) (from UniProt P11684)
  pKd: 7.48
